Source: publication PMC6831737

Molecular target: CAP256 SU gp140 (soluble cleavage-independent HIV-1 subtype C Env gp140 antigen) (HIV-1 subtype C, CAP256 SU virus)
Experiment: SEC + native gel or EMSA; GNL affinity-purified protein in PBS pH 7.4, fractionated on Superdex 200 HiLoad 16/600; pooled peaks resolved by BN-PAGE (NativePAGE 3-12% Bis-Tris) and stained with Coomassie

For “CAP256 SU gp140 (soluble cleavage-independent HIV-1 subtype C Env gp140 antigen) (domain or fragment)”, the stoichiometry N was 3.
